What was measured:
[1] = molecular target: T1, H46R/H48Q/C146S Sod1 labeled with Alexa-546 at C57 (yeast); test: other fluorescence titration; microplate, quenching of Alexa-546-labeled Sod1 on titration with Ccs1; Sod1 zinc bound and disulfide reduced (E, Zn-Sod1^SH); 20 mM Tris pH 7.5, 150 mM NaCl, 1 mM TCEP, 0.01% octyl glucoside and CHAPS
T1 sequence (P00445 2-154 with H46R H48Q C146S, looked up): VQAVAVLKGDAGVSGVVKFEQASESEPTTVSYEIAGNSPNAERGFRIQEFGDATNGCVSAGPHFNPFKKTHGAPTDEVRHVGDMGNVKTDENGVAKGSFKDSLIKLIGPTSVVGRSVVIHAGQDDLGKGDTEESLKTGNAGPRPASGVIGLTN

[2] = molecular target: T1, H46R/H48Q/C146S Sod1 labeled with Alexa-546 at C57 (yeast); test: other fluorescence titration; microplate, quenching of Alexa-546-labeled Sod1 on titration with Ccs1; Sod1 metal deficient and disulfide reduced (E, E-Sod1^SH); 20 mM Tris pH 7.5, 150 mM NaCl, 1 mM TCEP, 0.01% octyl glucoside and CHAPS
[3] = molecular target: T1, H46R/H48Q/C146S Sod1 labeled with Alexa-546 at C57 (yeast); test: as above; remark: listed apart in the source
[4] = molecular target: T1, H46R/H48Q/C146S Sod1 labeled with Alexa-546 at C57 (yeast); test: other fluorescence titration; microplate, quenching of Alexa-546-labeled Sod1 on titration with Ccs1; Sod1 zinc bound and disulfide reduced (E, Zn-Sod1^SH); 20 mM Tris pH 7.5, 150 mM NaCl, 1 mM TCEP, 0.01% octyl glucoside and CHAPS; remark: listed apart in the source

- Kd [1]: 134 nM
- Kd [2]: 34 nM
- Kd [3]: 36 nM
- Kd [4]: 114 nM
B1: copper chaperone for Sod1 (Ccs1), full-length wild type (natural protein)
chain: GHMTTNDTYEATYAIPMHCENCVNDIKACLKNVPGINSLNFDIEQQIMSVESSVAPSTIINTLRNCGKDAIIRGAGKPNSSAVAILETFQKYTIDQKKDTAVRGLARIVQVGENKTLFDITVNGVPEAGNYHASIHEKGDVSKGVESTGKVWHKFDEPIECFNESDLGKNLYSGKTFLSAPLPTWQLIGRSFVISKSLNHPENEPSSVKDYSFLGVIARSAGVWENNKQVCACTGKTVWEERKDALANNIK
